B1: ATL3 (parent)
chain: HFKKTKKMGGKDFSFRYQQELEEE
B2: TSPAN10 (parent)
chain: EGCGPPLRRWLRANLAASGGYAIA

Variants of: B1
Test: protein stability index of a GFP-peptide fusion (GPS, HEK-293T) (PSI 1-6); higher = more stable
Conditions: c terminus: a fixed tail appended
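Further: lentivirally expressed fusions sorted by FACS into six bins by GFP to DsRed ratio, PSI derived from sequencing read proportions per bin multiplied by bin number.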

Protein stability index: each site, then its substitutions
K11: A 2.69, P 2.06, F 1.24, C 2.17, S 2.4, N 1.78, W 1.78, E 1.2, T 2.22, Q 2.24, V 2.39, I 2.27, Y 1.26, H 2.11
K7: A 2.02, T 1.9, L 2.1, P 2.56, V 1.84, Q 2.54, G 1.8, R 1.65, I 2.9, S 2.04, C 2.44, N 2.11, M 2.88, H 2.32
K4: H 2.1, N 2.26, I 1.66, M 2.26, L 2.6, C 2.55, W 1.61, P 1.82, Y 1.23, T 2.1, A 2.72, Q 1.75, G 2.67, S 3.01, E 1.6, V 1.62, D 3.67
G10: E 5.39, P 1.3, R 2.03, T 1.61, L 2.07, I 1.68, M 2.71, F 1.82, W 1.7, H 2.19, D 1.8, K 2.56, S 3.53, C 1.56, A 1.75, Y 1.79, Q 1.86, V 2.04
H1: N 2.03, L 1.65, V 2.26, I 1.36, K 3.03, T 3.89, P 3.17, A 2.35, S 1.73, W 2.22, F 1.88, M 2.32
T5: Q 1.8, P 1.78, A 1.5, H 1.83, C 2.37, S 2.26, G 1.35, N 2.58, V 2.75, L 2.53, K 2.22, W 3.29, M 2.57, F 2.44, I 2.17, R 1.31, Y 1.75
F2: A 1.48, D 2.65, C 1.8, R 2.64, S 1.91, M 2.76, V 2.62, Y 2.1, G 1.4, H 1.62, P 1.26, E 1.09, I 2.65, T 1.87, N 2.28, L 1.39, Q 3.05
D12: V 2.7, R 1.96, M 1.46, T 2.24, E 2.34, A 1.88, N 2.1, L 2.67, I 2.43, Y 2.32, P 1.99, S 2.65
G9: N 1.99, D 2.23, T 2.11, E 1.77, I 2.48, L 2.26, Y 1.74, W 1.88, P 2.05, C 2.61, K 2.7, V 1.82, Q 1.96, H 1.84, F 2.64, A 1.41, S 1.75, M 1.28, R 1.77
M8: N 2.4, W 2.35, P 1.92, E 2.72, H 2.29, K 3.19, L 1.48, C 2.24, V 1.64, D 2.14, F 1.68, R 2.81, A 2.39, Q 2.21, T 2.63, I 1.96, G 3.01, S 2.77, Y 1.99
K3: I 1.89, L 1.98, E 1.43, F 2.41, M 2.71, P 1.9, H 1.73, Y 2.75, T 1.04, Q 3.21, G 1.86, V 2.4, N 2.18, R 2.42, W 1.02, A 2.06, D 2.34, S 1.79
K6: H 1.52, M 2.51, E 2.1, C 2.15, I 1.37, Y 2.38, Q 2.39, W 1.51, F 3.58, A 2.4, P 1.2, T 1.96, S 1.81, N 2.15, V 2.46, R 1.99
F13: Y 2.75, V 4.96, K 4.09, T 4.97, L 4.45, E 5.36, A 5.27, M 3.76, N 5.05, P 4.29, D 5.57, G 5.01, H 2.79, S 4.83, I 4.91, R 3.94, Q 5.21, C 4.74
S14: D 4.48, E 1.53, C 1.08

Variants of: B2
Test: as above
Conditions: c terminus: a fixed tail appended

Protein stability index: each site, then its substitutions
Y21: N 2.61, T 2.53, L 2.11, H 2.39, I 1.81, F 1.85, E 2.4, S 2.7, A 2.65, C 2.36, K 3.04, V 2.53, G 2.11, R 2.3, P 2.07, M 2.17, W 1.47, D 2.61, Q 2.75
A22: S 1.93, W 2.18, K 1.75, R 1.68, G 1.96, M 1.62, V 2.8, E 2.28, Q 1.63, L 2.06, C 1.38, N 2.43, T 1.7, P 1.93, I 1.03, D 2.46, H 2.23, Y 2.04
A24: L 2.81, Q 2.6, R 2.12, N 2.27, G 1.65, C 2.02, Y 1.16, M 1.93, D 2.42, K 2.15, S 1.98, F 1.48, V 1.67, H 1.68, I 2.22, E 2.92, T 2, W 2.25
I23: C 2.15, M 1.21, D 2.35, T 2.53, L 2.16, V 2.11, Q 2.48, R 2.6, E 2.34, N 2.92, W 1.59, G 2.3, Y 1.73, F 2.17, K 2.96, H 1.96, P 2.45, S 2.63
S18: R 1.8, T 2.34, Q 2.04, M 1.6, V 2.16, W 2.06, N 2.01, P 2.28, Y 1.4
G19: K 1.89, E 1.84, Q 1.43, P 2.13, D 2.11, N 2.13, I 1.93, H 2.32, M 1.24, R 2.33, T 1.74, Y 1.93, V 1.67, W 3.26, A 1.11, C 1.46, L 2.17, F 1.79, S 2.58
G20: W 1.84, E 2.33, T 1.63, N 3.44, V 2.21, H 2.03, Q 2.53, K 2.77, F 1.96, S 2.17, A 1.94, I 1.49, Y 1.66, R 1.48, P 2, D 2.25, C 1.56, M 1.84, L 1.96

Source: the supplement of paper PMC10567573
